# Substitutions are numbered along the chain they refer to.
# B1: antibody D105N_G2_YTE (antibody)
# heavy: QVQLVQSGAEVKKPGASVKVSCKASGYTFTNHYMHWVRQAPGQGLEWMGIINPISGSTSNAQKFQGRVTMTRDTSTSTVYMELSSLRSEDTAVYYCARDIVDAFNFWGQGTMVTVSSASTKGPSVFPLAPCSRSTSESTAALGCLVKDYFPEPVTVSWNSGALTSGVHTFPAVLQSSGLYSLSSVVTVPSSNFGTQTYTCNVDHKPSNTKVDKTVERKCCVECPPCPAPPVAGPSVFLFPPKPKDTLYITREPEVTCVVVDVSHEDPEVQFNWYVDGVEVHNAKTKPREEQFNSTFRVVSVLTVVHQDWLNGKEYKCKVSNKGLPAPIEKTISKTKGQPREPQVYTLPPSREEMTKNQVSLTCLVKGFYPSDIAVEWESNGQPENNYKTTPPMLDSDGSFFLYSKLTVDKSRWQQGNVFSCSVMHEALHNHYTQKSLSLSPGK
# light: AIQLTQSPSSLSASVGDRVTITCRASQGISSALVWYQQKPGKAPKLLIYDASSLESGVPSRFSGSGSGTDFTLTISSLQPEDFATYYCQQFNDYFTFGPGTKVDIK
# B2: antibody I100A_G2_YTE (antibody)
# heavy: B1 heavy with I100A, N105D
# light: B1 light
# B3: antibody D105N_IgG4PE_R409K_LS (antibody)
# heavy: QVQLVQSGAEVKKPGASVKVSCKASGYTFTNHYMHWVRQAPGQGLEWMGIINPISGSTSNAQKFQGRVTMTRDTSTSTVYMELSSLRSEDTAVYYCARDIVDAFNFWGQGTMVTVSSASTKGPSVFPLAPCSRSTSESTAALGCLVKDYFPEPVTVSWNSGALTSGVHTFPAVLQSSGLYSLSSVVTVPSSSLGTKTYTCNVDHKPSNTKVDKRVESKYGPPCPPCPAPEFEGGPSVFLFPPKPKDTLMISRTPEVTCVVVDVSQEDPEVQFNWYVDGVEVHNAKTKPREEQFNSTYRVVSVLTVLHQDWLNGKEYKCKVSNKGLPSSIEKTISKAKGQPREPQVYTLPPSQEEMTKNQVSLTCLVKGFYPSDIAVEWESNGQPENNYKTTPPVLDSDGSFFLYSKLTVDKSRWQEGNVFSCSVLHEALHSHYTQKSLSLSLGK
# light: B1 light
# B4: antibody I100H_G2_YTE (antibody)
# heavy: B1 heavy with I100H, N105D
# light: B1 light
# B5: antibody I100Y_G2_YTE (antibody)
# heavy: B1 heavy with I100Y, N105D
# light: B1 light
# B6: antibody I100A_G2_LS (antibody)
# heavy: B1 heavy with I100A, N105D, Y248M, T250S, E252T, M424L, N430S
# light: B1 light
# B7: antibody D105N_G2_LS (antibody)
# heavy: B1 heavy with Y248M, T250S, E252T, M424L, N430S
# light: B1 light
# B8: antibody I100A_IgG4PE_R409K_LS (antibody)
# heavy: B3 heavy with I100A, N105D
# light: B1 light
# B9: antibody I100H_IgG4PE_R409K_LS (antibody)
# heavy: B3 heavy with I100H, N105D
# light: B1 light
# B10: antibody I100Y_G2_LS (antibody)
# heavy: B1 heavy with I100Y, N105D, Y248M, T250S, E252T, M424L, N430S
# light: B1 light
# B11: antibody I100H_G2_LS (antibody)
# heavy: B1 heavy with I100H, N105D, Y248M, T250S, E252T, M424L, N430S
# light: B1 light
# B12: antibody I100Y_IgG4PE_R409K_LS (antibody)
# heavy: B3 heavy with I100Y, N105D
# light: B1 light
# Target: Recombinant Human FGF-23 (R&D Systems, Cat No. 2604-FG-025/CF) (human) (UniProt Q9GZV9)
# Assay: cell-based or functional assay
# Recombinant Human FGF-23 (R&D Systems, Cat No. 2604-FG-025/CF) (human), sequence (Q9GZV9 25-251 limits assumed): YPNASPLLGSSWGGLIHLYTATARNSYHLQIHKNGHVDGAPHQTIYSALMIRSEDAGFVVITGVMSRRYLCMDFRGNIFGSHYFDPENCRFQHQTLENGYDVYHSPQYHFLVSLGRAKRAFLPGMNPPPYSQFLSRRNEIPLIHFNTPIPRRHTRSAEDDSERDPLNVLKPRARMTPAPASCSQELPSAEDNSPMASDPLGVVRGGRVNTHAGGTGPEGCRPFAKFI
row,FGF23 neutralizing activity IC50 (luciferase promoter assay) [ng/mL],Binder
1,12.4,B1
2,5,B2
3,11.7,B3
4,8.9,B4
5,2.9,B5
6,2.4,B6
7,12.4,B7
8,6.6,B8
9,13.1,B9
10,4.4,B10
11,13,B11
12,2.9,B12
